Molecular target: HaHV1 UL36h NLS peptide (residues 1491-1500), FITC/Ahx-labelled (haliotid herpesvirus 1 (HaHV1))
Test: fluorescence polarisation

Substance “human importin α1 lacking the importin-β binding domain (hIMPα1ΔIBB) (domain or fragment)” has a Kd of 226 nM.

“human importin α3 lacking the importin-β binding domain (hIMPα3ΔIBB) (domain or fragment)” was tested, and the Kd was 193 nM.
